From patent publication US20240101981A1 (LINNO PHARMACEUTICALS, published 2024) come the findings set out here.

The assay deals with T1, human transferrin (human, UniProt P02787 20-698).
T1 construct: mature; also called hTf; native human transferrin
Put plainly: ELISA, biotinylated human transferrin on streptavidin plate, anti-hARSA detection. The procedure: A 96-well plate was coated with streptavidin (0.1 μg/mL, 100 μL/well) and incubated overnight at 4° C.; after washing the plate three times with buffer PBST, the 96-well plate was blocked with 200 μL of PBST containing 1% bovine serum albumin (BSA) for 1 hour at room temperature. The plate was then washed three times with PBST, added with biotinylated human transferrin (1 μg/mL, 100 μL/well) and incubated at room temperature for 1 hour. […] The plate was then washed three times with PBST, added with goat anti-hARSA antibody (R&D, AF2485) (100 μL/well) at a concentration of 0.125 ug/mL to each well and incubated at room temperature for 1 hour. The plate was then washed three times with PBST, added with 100 μL anti-goat IgG-HRP to each well and incubated at room temperature for 0.5 hour, followed by the same washing steps aforementioned. The plate was then added with 100 μL/well of TMB substrate solution and incubated at room temperature for 15 minutes. The reaction was then stopped by adding 100 μL/well of the stop solution, and the absorbance was read at 450 nm using an ELISA reader.
(ELISA stands for enzyme-linked immunosorbent assay.)

T1 sequence (P02787 20-698): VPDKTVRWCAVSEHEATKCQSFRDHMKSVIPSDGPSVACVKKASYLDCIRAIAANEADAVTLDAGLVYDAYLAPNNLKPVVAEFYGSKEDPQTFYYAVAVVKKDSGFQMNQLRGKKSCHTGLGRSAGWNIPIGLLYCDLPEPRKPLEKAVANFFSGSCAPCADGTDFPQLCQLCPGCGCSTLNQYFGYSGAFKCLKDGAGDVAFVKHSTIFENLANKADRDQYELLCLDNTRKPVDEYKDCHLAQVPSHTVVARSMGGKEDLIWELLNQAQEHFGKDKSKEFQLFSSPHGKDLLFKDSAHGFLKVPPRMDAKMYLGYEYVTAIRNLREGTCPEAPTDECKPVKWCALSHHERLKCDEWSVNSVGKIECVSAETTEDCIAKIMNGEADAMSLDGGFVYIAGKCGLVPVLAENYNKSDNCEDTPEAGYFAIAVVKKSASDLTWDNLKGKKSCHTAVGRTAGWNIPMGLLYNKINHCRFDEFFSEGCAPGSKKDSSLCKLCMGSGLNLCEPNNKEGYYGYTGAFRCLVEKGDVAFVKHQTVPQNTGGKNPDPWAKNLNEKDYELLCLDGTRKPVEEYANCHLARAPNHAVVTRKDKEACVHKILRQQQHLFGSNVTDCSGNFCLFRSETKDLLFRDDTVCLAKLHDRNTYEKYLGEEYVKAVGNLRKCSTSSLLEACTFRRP

B1: hARSA-9056VHH-his (other)
chain: RPPNIVLIFADDLGYGDLGCYGHPSSTTPNLDQLAAGGLRFTDFYVPVSLCTPSRAALLTGRLPVRMGMYPGVLVPSSRGGLPLEEVTVAEVLAARGYLTGMAGKWHLGVGPEGAFLPPHQGFHRFLGIPYSHDQGPCQNLTCFPPATPCDGGCDQGLVPIPLLANLSVEAQPPWLPGLEARYMAFAHDLMADAQRQDRPFFLYYASHHTHYPQFSGQSFAERSGRGPFGDSLMELDAAVGTLMTAIGDLGLLEETLVIFTADNGPETMRMSRGGCSGLLRCGKGTTYEGGVREPALAFWPGHIAPGVTHELASSLDLLPTLAALAGAPLPNVTLDGFDLSPLLLGTGKSPRQSLFFYPSYPDEVRGVFAVRTGKYKAHFFTQGSAHSDTTADPACHASSSLTAHEPPLLYDLSKDPGENYNLLGGVAGATPEVLQALKQLQLLKAQLDAAVTFGPSQVARGEDPALQICCHPGCTPRPACCHCPDPHAGGGGSGGGGSGGGGSEVQLVESGGGLVQPGGSLRLSCAASGHAYGGNYMGWFRQAPGKGLEGVAVLYTGGGSTYYADSVKGRFTISEDNSKNTVYLQMNSLRAEDTAVYYCALALGSARWYTSSLDARAYNIWGQGTLVTVSSGGGGSHHHHHH
notes: Expressed in HEK293F cells
Consider B1, for which the binding result is listed as “binds”.

B2: hARSA (enzyme)
chain: RPPNIVLIFADDLGYGDLGCYGHPSSTTPNLDQLAAGGLRFTDFYVPVSLCTPSRAALLTGRLPVRMGMYPGVLVPSSRGGLPLEEVTVAEVLAARGYLTGMAGKWHLGVGPEGAFLPPHQGFHRFLGIPYSHDQGPCQNLTCFPPATPCDGGCDQGLVPIPLLANLSVEAQPPWLPGLEARYMAFAHDLMADAQRQDRPFFLYYASHHTHYPQFSGQSFAERSGRGPFGDSLMELDAAVGTLMTAIGDLGLLEETLVIFTADNGPETMRMSRGGCSGLLRCGKGTTYEGGVREPALAFWPGHIAPGVTHELASSLDLLPTLAALAGAPLPNVTLDGFDLSPLLLGTGKSPRQSLFFYPSYPDEVRGVFAVRTGKYKAHFFTQGSAHSDTTADPACHASSSLTAHEPPLLYDLSKDPGENYNLLGGVAGATPEVLQALKQLQLLKAQLDAAVTFGPSQVARGEDPALQICCHPGCTPRPACCHCPDPHA
notes: Control enzyme without the VHH; also called rhARSA; hARSA-his
For B2, the binding result is “no binding”.
